The text below walks through data of patent publication US20250188166A1 (BRIGHT PEAK THERAPEUTICS, published 2025).

Assay [1] concerns the target T1, IL-18R on HEK-Blue IL18R reporter cells (UniProt Q13478 19-541; O95256 20-599).
T1 sequence (looked up) 1: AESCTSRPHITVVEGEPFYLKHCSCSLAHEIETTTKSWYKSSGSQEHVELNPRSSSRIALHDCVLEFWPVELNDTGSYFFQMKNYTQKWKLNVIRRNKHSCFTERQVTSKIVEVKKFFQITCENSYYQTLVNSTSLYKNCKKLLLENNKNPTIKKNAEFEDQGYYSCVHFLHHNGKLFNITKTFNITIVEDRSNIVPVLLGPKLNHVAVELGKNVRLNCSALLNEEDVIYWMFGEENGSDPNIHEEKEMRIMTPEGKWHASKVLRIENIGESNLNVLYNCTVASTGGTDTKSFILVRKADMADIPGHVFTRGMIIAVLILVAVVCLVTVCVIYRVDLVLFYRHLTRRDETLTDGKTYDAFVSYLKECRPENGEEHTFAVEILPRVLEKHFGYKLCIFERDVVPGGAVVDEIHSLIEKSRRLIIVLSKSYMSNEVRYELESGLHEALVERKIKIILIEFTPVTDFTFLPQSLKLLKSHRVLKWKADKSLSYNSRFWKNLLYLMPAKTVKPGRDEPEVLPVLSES
T1 sequence (looked up) 2: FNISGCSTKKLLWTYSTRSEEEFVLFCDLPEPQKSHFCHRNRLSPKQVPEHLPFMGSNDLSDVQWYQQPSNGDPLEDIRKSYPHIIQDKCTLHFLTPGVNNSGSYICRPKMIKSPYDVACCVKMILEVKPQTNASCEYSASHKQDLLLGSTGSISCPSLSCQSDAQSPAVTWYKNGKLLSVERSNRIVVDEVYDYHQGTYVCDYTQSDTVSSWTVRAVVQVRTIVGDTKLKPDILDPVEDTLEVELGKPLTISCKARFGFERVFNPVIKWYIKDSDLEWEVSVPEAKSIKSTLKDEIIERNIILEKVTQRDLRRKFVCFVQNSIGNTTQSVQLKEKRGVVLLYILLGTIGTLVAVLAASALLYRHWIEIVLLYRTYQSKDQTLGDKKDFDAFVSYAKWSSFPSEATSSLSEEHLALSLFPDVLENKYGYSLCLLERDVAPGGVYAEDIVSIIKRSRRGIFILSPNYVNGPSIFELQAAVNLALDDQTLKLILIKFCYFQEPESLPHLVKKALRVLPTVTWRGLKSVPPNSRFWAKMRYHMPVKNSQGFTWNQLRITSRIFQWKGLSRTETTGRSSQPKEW
In words: cell-based or functional assay.

The target in assay [2] is T2, Biotinylated Recombinant Human PD-1/CD279-Fc Chimera (human, UniProt Q15116 25-167, biotinylated).
T2 construct: Bought (Biolegend #789406); also called recombinant biotinylated human PD-1
Briefly: ELISA; antibody coated, biotinylated human PD-1-Fc titrated. The protocol: (§1) The interaction of the unmodified antibodies and corresponding IL-18 immunocytokines with relevant immune cell associated antigen are measured by ELISA assay. For these studies, Corning high-binding half-area plates (Fisher Scientific, Reinach, Switzerland) are coated overnight at 4° C. with 25 μl of unmodified antibodies corresponding IL-18 immunocytokines at 5 μg/ml in PBS. Plates are then washed four times with 100 μl of PBS-0.02% Tween20. Plate surfaces are blocked with 25 μl of PBS-0.02% Tween20-1% BSA at 37° C. during 1h. […] Plates are then washed four times with 100 μl of PBS-0.02% Tween20. Twenty-five microliters of Streptavidin-Horseradish peroxidase (#RABHRP3, Merck, Buchs, Switzerland) diluted at 1:500 into PBS-0.02%Tween20-0.1% BSA are added to each well and incubated at Room Temperature during 30 min. Plates are then washed four times with 100 μl of PBS-0.02% Tween20. Fifty microliters of TMB substrate reagent (#CL07, Merck, Buchs, Switzerland) are added to each well and incubated at 37° C. during 5 min. After 5 min at 37° C., Horseradish peroxidase reaction is stopped by adding 50 μl/well of 0.5M H2SO₄ stop solution. ELISA signal is then measured at 450 nm on an ENSPIRE® plate reader from Perkin Elmer (Schwerzenbach, Switzerland).

In assay [3] the target is T3, recombinant biotinylated human FcRn (human, UniProt P55899 24-297; P61769 21-119, limits assumed, biotinylated).
T3 construct: Kit reagent; also called human neonatal Fc receptor
Briefly: AlphaLISA competition at pH 6; competitor human IgG acceptor beads. The protocol: The interaction of the unmodified and of conjugated anti-PD1 antibodies with the human neonatal Fc receptor (FcRn) at pH 6 was measured using the AlphaLISA® Human FcRn Binding Kit (AL3095C) from Perkin Elmer (Schwerzenbach, Switzerland).
After 90 min at 23° C. in the dark, AlphaLISA® signal was measured on an EnSpire plate reader (Excitation at 680 nm, Emission at 615 nm) from Perkin Elmer (Schwerzenbach, Switzerland).

Assay [4] concerns the target T2, Biotinylated Recombinant Human …. In words: ELISA: fusion immunocytokine coated on the plate (5 µg/ml), biotinylated human PD-1-Fc titrated (x-axis, Concentration (nM)), streptavidin-HRP/TMB, 450 nm. The protocol: as §1
(In general: ELISA stands for enzyme-linked immunosorbent assay.)

The target in assay [5] is T3, recombinant biotinylated human FcRn. Briefly: AlphaLISA competition at pH 6: test molecule titrated against human IgG acceptor beads for biotinylated human FcRn on streptavidin donor beads; normalized signal.

B1: CMP2001 (other)
heavy 1: QVQLVQSGAEVKKPGASVKVSCKASGYTFTSYYMYWVRQAPGQGLEWMGGVNPSNGGTNFNEKFKSRVTITADKSTSTAYMELSSLRSEDTAVYYCARRDYRYDMGFDYWGQGTTVTVSSASTKGPSVFPLAPCSRSTSESTAALGCLVKDYFPEPVTVSWNSGALTSGVHTFPAVLQSSGLYSLSSVVTVPSSSLGTKTYTCNVDHKPSNTKVDKRVESKYGPPCPPCPAPEFLGGPSVFLFPPKPKDTLMISRTPEVTCVVVDVSQEDPEVQFNWYVDGVEVHNAKTKPREEQFNSTYRVVSVLTVLHQDWLNGKEYKCKVSNKGLPSSIEKTISKAKGQPREPQVYTLPPSQEEMTKNQVSLWCLVKGFYPSDIAVEWESNGQPENNYKTTPPVLDSDGSFFLYSRLTVDKSRWQEGNVFSCSVMHEALHNRFTQKSLSLSLGK
heavy 2: QVQLVQSGAEVKKPGASVKVSCKASGYTFTSYYMYWVRQAPGQGLEWMGGVNPSNGGTNFNEKFKSRVTITADKSTSTAYMELSSLRSEDTAVYYCARRDYRYDMGFDYWGQGTTVTVSSASTKGPSVFPLAPCSRSTSESTAALGCLVKDYFPEPVTVSWNSGALTSGVHTFPAVLQSSGLYSLSSVVTVPSSSLGTKTYTCNVDHKPSNTKVDKRVESKYGPPCPPCPAPEFLGGPSVFLFPPKPKDTLMISRTPEVTCVVVDVSQEDPEVQFNWYVDGVEVHNAKTKPREEQFNSTYRVVSVLTVLHQDWLNGKEYKCKVSNKGLPSSIEKTISKAKGQPREPQVYTLPPSQEEMTKNQVSLSCAVKGFYPSDIAVEWESNGQPENNYKTTPPVLDSDGSFFLVSRLTVDKSRWQEGNVFSCSVMHEALHNHYTQKSLSLSLGKGGGGSGGGGSGGGGSYFGKLKSKLSIIRNLNDQVLFIDQGNRPLFEDMTDSDARDNAPRTIFIISMYADSQPRGMAVAISVKCEKISTLSAENKIISFKEMNPPDNIKDTKSDIIFFQRSVPGHDNKMQFESSSYEGYFLAAEKERDLFKLILKKEDELGDRSIMFTVQNED
light: EIVLTQSPATLSLSPGERATISCRASKGVSTSGYSYLHWYQQKPGQAPRLLIYLASYLESGVPARFSGSGSGTDFTLTISSLEPEDFATYYCQHSRELPLTFGTGTKVEIKRTVAAPSVFIFPPSDEQLKSGTASVVCLLNNFYPREAKVQWKVDNALQSGNSQESVTEQDSKDSTYSLSSTLTLSKADYEKHKVYACEVTHQGLSSPVTKSFNRGEC
notes: expressed in CHO K1 cells
B1: the “IL-18R Hek Blue assay EC50” value in assay [1] was greater than 0.2 nM. Besides, the Kd came to 0.0389 nM in assay [2] and 12.5 nM in assay [3]. In addition, in assay [4], the “EC50 (read off the curve)” value was roughly 0.03 nM. Further, the “IC50 (read off the curve)” value in assay [5] was roughly 10 nM.

The term Kd denotes the constant that tells how readily two partners part at equilibrium. What is called EC50 (read off the curve) is the midpoint of the concentration-response curve.
